Km and kcat data for 1 substance are collected here from patent US8097443B2, “Nucleotidyltransferases with enhanced nucleotide triphosphate flexibility” (priority 2007, dated 2012).

Common to all, as to experiment: purified protein, by the assay type
What all share (conditions): other: Wild-type RmlA, 10 mM glucose-1-phosphate, 0.05-25 μM enzyme, [NTP] + 5 mM MgCl2, 100 mM Tris-HCl pH 8.0, 37° C.

The subject of series [1] is O=c1ccn([C@@H]2O[C@H](COP(=O)(O)OP(=O)(O)OP(=O)(O)O)[C@@H](O)[C@H]2O)c(=O)[nH]1.
For series [2], the system named is Nc1ccn([C@H]2C[C@H](O)[C@@H](COP(=O)(O)OP(=O)(O)OP(=O)(O)O)O2)c(=O)n1.
In series [3] the test system is Nc1nc2c(ncn2[C@@H]2O[C@H](COP(=O)(O)OP(=O)(O)OP(=O)(O)O)[C@@H](O)[C@H]2O)c(=O)[nH]1.
Series [4] concerns Nc1ccn([C@@H]2O[C@H](COP(=O)(O)OP(=O)(O)OP(=O)(O)O)[C@@H](O)[C@H]2O)c(=O)n1.
The subject of series [5] is Nc1nc2c(ncn2[C@H]2C[C@H](O)[C@@H](COP(=O)(O)OP(=O)(O)OP(=O)(O)O)O2)c(=O)[nH]1.
The subject of series [6] is Nc1ncnc2c1ncn2[C@H]1C[C@H](O)[C@@H](COP(=O)(O)OP(=O)(O)OP(=O)(O)O)O1.

“wt RmlA (glucose-1-phosphate thymidylyltransferase) (Salmonella enterica subsp. enterica serovar Typhimurium str. LT2)”: the Km (as a rule, the substrate concentration at which the rate is half of its maximum) in series [1] came to 4.6 ± 0.7 mM; in series [2], 10.5 ± 1.1 mM; in series [3], 8.5 ± 0.6 mM; in series [4], 13.7 ± 1.1 mM; in series [5], 3.7 ± 0.5 mM; in series [6] it was 7.8 ± 0.9 mM. Further, the catalytic constant (kcat) (as a rule, the maximal rate divided by the concentration of active sites) in series [1] was 41 ± 2.17 s⁻¹; in series [2] it was 1.22 ± 0.05 s⁻¹; in series [3] it was 0.14 ± 0.0033 s⁻¹; in series [4], 0.0983 ± 0.0033 s⁻¹; in series [5], 2.12 ± 0.083 s⁻¹; in series [6] it was 1.88 ± 0.083 s⁻¹.
